Laboratory results published in patent publication US20250304666A1 (ALCHEMAB THERAPEUTICS, published 2025).

Molecular target: T1, reduced CFHR5 (UniProt Q9BXR6 19-569, limits assumed)
T1 sequence (looked up): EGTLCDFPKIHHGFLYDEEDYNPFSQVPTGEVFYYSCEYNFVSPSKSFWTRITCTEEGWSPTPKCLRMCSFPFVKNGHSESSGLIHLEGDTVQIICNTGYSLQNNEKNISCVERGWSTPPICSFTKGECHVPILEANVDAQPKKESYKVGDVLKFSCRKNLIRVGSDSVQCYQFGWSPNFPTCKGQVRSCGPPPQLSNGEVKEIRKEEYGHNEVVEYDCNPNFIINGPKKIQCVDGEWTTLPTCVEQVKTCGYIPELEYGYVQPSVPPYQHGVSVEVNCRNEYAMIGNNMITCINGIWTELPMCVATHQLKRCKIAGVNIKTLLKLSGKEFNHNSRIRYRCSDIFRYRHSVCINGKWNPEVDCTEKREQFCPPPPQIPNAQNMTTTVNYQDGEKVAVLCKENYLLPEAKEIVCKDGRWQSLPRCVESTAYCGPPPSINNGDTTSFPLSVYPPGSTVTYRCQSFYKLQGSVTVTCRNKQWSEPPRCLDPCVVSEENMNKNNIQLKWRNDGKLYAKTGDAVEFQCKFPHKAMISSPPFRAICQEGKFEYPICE
Test: ELISA on reduced CFHR5

B1: ATL5170 (antibody, human IgG1, kappa, V domains shown)
VH: QVQLVESGGGVVQPGRSLRLSCAASGFTFSNYGMHWVRQAPGKGLEWVAVTSFDGKTKYYADSVKGRFTISRDNSKNTLYLQMNSLRAEDTAVYYCAKGGATAAVLDSWGQGTLVTVSS
VL: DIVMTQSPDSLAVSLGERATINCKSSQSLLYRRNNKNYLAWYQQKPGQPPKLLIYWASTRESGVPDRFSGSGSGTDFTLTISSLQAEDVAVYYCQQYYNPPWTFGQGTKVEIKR
notes: IgG1; also called ATL_0005170
Does B1 bind?
Result: no binding (tested: 100 ug/ml)
